The results in this text go back to patent US7223730.

Values joined by “and” are separate entries in the source; they are usually repeats but may differ in a detail not shown here. Identical values can stand only once.

One series deals with human fibrinogen (UniProt P02671).

With “antithrombosis enzyme purified from the snake venom of Southern-Anhui Agkistrodon acutus”, the fibrinolytic activity in the series with fibrin is 1 fibrinolytic activity unit per mg protein. Moreover, in the series with fibrin (scale: fibrinolytic activity units per mg of enzyme), the fibrinolytic activity (fibrin-plate-clearance assay) was 1 and 3. Further, in the series with human fibrinogen, the fibrinogen cleavage entry is “One fibrinogen cleavage site was found to be Met 235-Pro236 of the α chain of human fibrinogen”. The “proteolytic activity (azocasein hydrolysis, absorbance at 390 nm)” value in the series with azocasein is “No proteolytic activity was detected in this assay”.
